From article doi:10.1101/2025.06.13.659598 come the findings set out here.

The target in this assay is nesprin-2G SR11-13 (spectrin repeats 11-13 of human nesprin-2) (human). Briefly: co-sedimentation.

Sequence of FHOD1 wild-type, full length (Q9Y613 whole entry): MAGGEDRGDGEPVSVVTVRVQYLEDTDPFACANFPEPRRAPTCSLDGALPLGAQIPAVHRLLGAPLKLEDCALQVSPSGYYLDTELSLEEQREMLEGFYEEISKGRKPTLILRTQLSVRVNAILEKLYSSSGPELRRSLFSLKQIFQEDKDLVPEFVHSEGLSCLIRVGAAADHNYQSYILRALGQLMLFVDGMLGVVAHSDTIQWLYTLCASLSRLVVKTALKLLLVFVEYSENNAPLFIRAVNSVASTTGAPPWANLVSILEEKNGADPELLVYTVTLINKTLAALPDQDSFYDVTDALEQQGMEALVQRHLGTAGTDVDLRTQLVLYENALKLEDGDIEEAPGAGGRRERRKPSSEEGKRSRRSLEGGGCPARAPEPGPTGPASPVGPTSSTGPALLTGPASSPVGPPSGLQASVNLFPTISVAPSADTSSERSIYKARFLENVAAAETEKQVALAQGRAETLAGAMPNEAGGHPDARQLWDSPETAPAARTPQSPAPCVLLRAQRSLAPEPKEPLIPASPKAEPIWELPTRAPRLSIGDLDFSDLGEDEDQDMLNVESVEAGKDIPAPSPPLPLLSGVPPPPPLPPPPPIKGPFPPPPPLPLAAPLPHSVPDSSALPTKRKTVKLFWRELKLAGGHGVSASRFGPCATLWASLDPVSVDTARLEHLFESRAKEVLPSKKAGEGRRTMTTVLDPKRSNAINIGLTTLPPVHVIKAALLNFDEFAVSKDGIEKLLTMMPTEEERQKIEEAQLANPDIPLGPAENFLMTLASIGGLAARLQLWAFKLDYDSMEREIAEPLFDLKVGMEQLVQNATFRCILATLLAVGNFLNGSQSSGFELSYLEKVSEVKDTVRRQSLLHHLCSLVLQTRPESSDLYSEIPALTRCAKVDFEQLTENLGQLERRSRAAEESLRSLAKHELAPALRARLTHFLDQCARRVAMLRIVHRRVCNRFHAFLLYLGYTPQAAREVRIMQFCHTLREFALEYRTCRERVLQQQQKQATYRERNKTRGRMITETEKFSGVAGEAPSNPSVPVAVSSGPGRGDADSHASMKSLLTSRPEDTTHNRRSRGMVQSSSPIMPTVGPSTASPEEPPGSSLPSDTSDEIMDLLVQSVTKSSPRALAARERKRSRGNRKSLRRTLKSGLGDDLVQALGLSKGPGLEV

For the substance “FHOD3 wild-type (from UniProt Q2V2M9 1-1422) (natural protein)”, the stoichiometry N (scale: FHOD3 WT per SR11-13) was 1.3.

In the case of “FHOD1 wild-type, full length (from UniProt Q9Y613 1-1164) (natural protein)”, where the note is “scale: FHOD1 WT per SR11-13”, the stoichiometry N was 1.18.
